# Biological target: T1, SF3B core complex (human, UniProt O75533 453-1304; Q15393 1-1217; Q9BWJ5 1-86; Q7RTV0 1-98)
# T1 construct: SF3B1 C-terminal HEAT domain, residues 453-1304; SF3B3, residues 1-1217; SF3B5, residues 1-86; PHF5A, residues 1-98; SF3B3 carries an N-terminal His6 and a TEV protease cleavage site; no cleavage step is described in the purification; also called SF3B complex; source: Tni insect cells (baculovirus), coexpressed, purified (Ni-NTA, Superdex 200 gel filtration); copies: + + +
# Assay: SEC; purified SF3B complex and DHX15 (113–795)–SUGP1 (433–645) heterodimer mixed at a molar ratio of 1:5, overnight at 4°C, Superose 6 Increase 10/300 in 20 mM HEPES pH 7.9, 300 mM KCl, 5% glycerol, 5 mM DTT; complex fractions rerun and peak analysed by SDS-PAGE
# Details: both partners purified
# T1 sequence (O75533 453-1304, chain 1 of 4): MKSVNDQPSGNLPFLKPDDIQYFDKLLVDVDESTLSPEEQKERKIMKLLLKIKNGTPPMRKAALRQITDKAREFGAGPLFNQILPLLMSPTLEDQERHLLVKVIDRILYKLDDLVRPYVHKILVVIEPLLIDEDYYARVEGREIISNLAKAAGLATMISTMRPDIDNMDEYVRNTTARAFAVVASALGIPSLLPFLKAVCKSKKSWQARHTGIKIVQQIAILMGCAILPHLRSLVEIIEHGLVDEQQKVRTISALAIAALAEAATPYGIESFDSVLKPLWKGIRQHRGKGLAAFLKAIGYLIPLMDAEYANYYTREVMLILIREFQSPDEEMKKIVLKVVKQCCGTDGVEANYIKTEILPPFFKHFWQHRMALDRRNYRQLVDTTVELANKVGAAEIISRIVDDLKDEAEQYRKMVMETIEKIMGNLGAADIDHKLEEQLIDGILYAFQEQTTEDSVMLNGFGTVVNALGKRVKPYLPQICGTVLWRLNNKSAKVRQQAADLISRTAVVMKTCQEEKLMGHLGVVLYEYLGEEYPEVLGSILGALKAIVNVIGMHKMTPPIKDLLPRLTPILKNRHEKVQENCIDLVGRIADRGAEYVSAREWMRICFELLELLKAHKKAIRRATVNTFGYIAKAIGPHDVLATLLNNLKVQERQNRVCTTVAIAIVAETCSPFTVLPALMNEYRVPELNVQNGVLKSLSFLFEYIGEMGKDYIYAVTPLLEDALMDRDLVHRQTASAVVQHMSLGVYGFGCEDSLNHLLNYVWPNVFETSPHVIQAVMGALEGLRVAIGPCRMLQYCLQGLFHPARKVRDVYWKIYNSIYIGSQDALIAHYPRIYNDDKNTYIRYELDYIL
# T1 sequence (Q15393 whole entry, chain 2 of 4, the tested form may be a part): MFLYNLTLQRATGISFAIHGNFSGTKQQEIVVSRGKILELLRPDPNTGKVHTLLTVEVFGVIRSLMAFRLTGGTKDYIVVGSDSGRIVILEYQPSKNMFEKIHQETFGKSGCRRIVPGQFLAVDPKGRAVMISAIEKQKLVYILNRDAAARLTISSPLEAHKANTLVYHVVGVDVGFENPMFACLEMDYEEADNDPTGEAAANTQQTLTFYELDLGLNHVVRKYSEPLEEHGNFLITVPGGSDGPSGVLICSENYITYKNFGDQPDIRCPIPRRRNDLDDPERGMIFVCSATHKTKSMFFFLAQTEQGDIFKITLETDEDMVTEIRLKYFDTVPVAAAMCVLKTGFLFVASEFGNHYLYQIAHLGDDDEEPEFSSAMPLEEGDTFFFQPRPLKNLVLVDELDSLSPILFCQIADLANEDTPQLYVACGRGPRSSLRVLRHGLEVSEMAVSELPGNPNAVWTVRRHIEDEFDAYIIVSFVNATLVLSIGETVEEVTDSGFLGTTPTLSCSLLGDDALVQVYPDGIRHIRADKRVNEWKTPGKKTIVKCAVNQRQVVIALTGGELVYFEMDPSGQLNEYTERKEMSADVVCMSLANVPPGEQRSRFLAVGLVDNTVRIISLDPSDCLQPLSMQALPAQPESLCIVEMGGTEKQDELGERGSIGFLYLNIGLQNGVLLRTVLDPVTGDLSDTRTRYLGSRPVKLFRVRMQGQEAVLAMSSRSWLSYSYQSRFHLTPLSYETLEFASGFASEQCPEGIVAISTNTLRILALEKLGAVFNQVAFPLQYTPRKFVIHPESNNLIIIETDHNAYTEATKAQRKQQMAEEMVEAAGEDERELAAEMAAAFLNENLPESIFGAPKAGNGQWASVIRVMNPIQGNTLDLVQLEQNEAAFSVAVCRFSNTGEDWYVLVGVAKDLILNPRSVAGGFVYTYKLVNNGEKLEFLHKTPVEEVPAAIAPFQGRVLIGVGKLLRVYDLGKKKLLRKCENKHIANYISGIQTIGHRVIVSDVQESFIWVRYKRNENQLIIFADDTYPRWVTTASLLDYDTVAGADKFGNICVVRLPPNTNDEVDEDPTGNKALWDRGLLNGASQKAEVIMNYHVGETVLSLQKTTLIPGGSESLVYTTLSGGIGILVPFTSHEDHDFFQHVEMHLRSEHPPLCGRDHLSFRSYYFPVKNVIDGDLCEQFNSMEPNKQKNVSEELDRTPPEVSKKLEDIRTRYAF
# T1 sequence (Q9BWJ5 whole entry, chain 3 of 4, the tested form may be a part): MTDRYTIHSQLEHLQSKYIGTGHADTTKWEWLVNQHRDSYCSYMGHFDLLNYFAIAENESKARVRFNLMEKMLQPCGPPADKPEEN
# T1 sequence (Q7RTV0 1-98, chain 4 of 4): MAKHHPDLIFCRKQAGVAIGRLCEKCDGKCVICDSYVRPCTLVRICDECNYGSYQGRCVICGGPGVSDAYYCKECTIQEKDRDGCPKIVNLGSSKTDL
binder,measurement,value
"DHX15 (113–795)–SUGP1 (433–645) heterodimer (complex, human, DHX15 (DEAH-box helicase 15), residues 113-795, lacks the N-terminal unstructured region; DHX15 was fused with N-terminal His6, MBP and a TEV protease cleavage site; also called DHX15–SUGP1; DHX15–SUGP1 heterodimer; source: Tni insect cells (baculovirus), coexpressed, purified as in Zhang et al. 2022a) chain 1: QCINPFTNLPHTPRYYDILKKRLQLPVWEYKDRFTDILVRHQSFVLVGETGSGKTTQIPQWCVEYMRSLPGPKRGVACTQPRRVAAMSVAQRVADEMDVMLGQEVGYSIRFEDCSSAKTILKYMTDGMLLREAMNDPLLERYGVIILDEAHERTLATDILMGVLKEVVRQRSDLKVIVMSATLDAGKFQIYFDNCPLLTIPGRTHPVEIFYTPEPERDYLEAAIRTVIQIHMCEEEEGDLLLFLTGQEEIDEACKRIKREVDDLGPEVGDIKIIPLYSTLPPQQQQRIFEPPPPKKQNGAIGRKVVVSTNIAETSLTIDGVVFVIDPGFAKQKVYNPRIRVESLLVTAISKASAQQRAGRAGRTRPGKCFRLYTEKAYKTEMQDNTYPEILRSNLGSVVLQLKKLGIDDLVHFDFMDPPAPETLMRALELLNYLAALNDDGDLTELGSMMAEFPLDPQLAKMVIASCDYNCSNEVLSITAMLSVPQCFVRPTEAKKAADEAKMRFAHIDGDHLTLLNVYHAFKQNHESVQWCYDNFINYRSLMSADNVRQQLSRIMDRFNLPRRSTDFTSRDYYINIRKALVTGYFMQVAHLERTGHYLTVKDNQVVQLHPSTVLDHKPEWVLYNEFVLTTKNYIRTCTDIKPEWLVKIAPQYYDMSNFPQCEAKRQLDRIIAKLQSKEYSQY chain 2: GVTELSDAQKKQLKEQQEMQQMYDMIMQHKRAMQDMQLLWEKAVQQHQHGYDSDEEVDSELGTWEHQLRRMEMDKTREWAEQLTKMGRGKHFIGDFLPPDELEKFMETFKALKEGREPDYSEYKEFKLTVENIGYQMLMKMGWKEGEGLGSEGQGIKNPVNKGTTTVDGAGFGIDRPAELSKEDDEYEAFRKRMMLAYRFRPNPLNNPRRPYY",binding result,binds
